Patent US20080004215

Legend:
[1] = target: WGMDY1 (WGMDY1 fused to a 10-mer cell-penetrating peptide sequence of HIV tat-1 protein, unphosphorylated form)
[2] = target: pWGMDY1 (WGMDY1 fused to a 10-mer cell-penetrating peptide sequence of HIV tat-1 protein, phosphorylated form)

B1: purified glutathione S-transferase (GST) fusion of the phosphatase domain of SHP2 (protein)
chain: GFWEEFETLQQQECKLLYSRKEGQRQENKNKNRYKNILPFDHTRVVLHDGDPNEPVSDYINANIIMPEFETKCNNSKPKKSYIATQGCLQNTVNDFWRMVFQENSRVIVMTTKEVERGKSKCVKYWPDEYALKEYGVMRVRNVKESAAHDYTLRELKLSKVGQGNTERTVWQYHFRTWPDHGVPSDPGGVLDFLEEVHHKQESIMDAGPVVVHCSAGIGRTGTFIVIDILIDIIREKGVDCDIDVPKTIQMVRSQRSGMVQTEAQYRFIYMAVQHYIETLQRRIEEEQKSKRKGHEYTNIKYSLADQTSGDQSPLPPCTPTPPCAEMREDSARVYENVGLMQQQKSFR
- in vitro phosphatase assay: dephosphorylation of para-nitrophenolphosphate (pN) by P, absorbance (OD) at 405 nm at the 5 minutes time point [1]: Addition of pWGMDY1, but not WGMDY1, inhibited the dephosphorylation reaction
- in vitro phosphatase assay: dephosphorylation of para-nitrophenolphosphate (pN) by P, absorbance (OD) at 405 nm at the 5 minutes time point [2]: Addition of pWGMDY1, but not WGMDY1, inhibited the dephosphorylation reaction
